Target: T1, 人VEGFC-His(金赛自构) (human)
T1 construct: also called hVEGFC-His; hVEGFC
T1 chain: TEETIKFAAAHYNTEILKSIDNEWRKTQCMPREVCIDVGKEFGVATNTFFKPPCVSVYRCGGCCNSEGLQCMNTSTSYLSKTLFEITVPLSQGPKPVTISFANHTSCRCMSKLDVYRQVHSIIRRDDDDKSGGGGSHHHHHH
Experiment: ELISA, human VEGFC-His coated at 1 μg/ml

- binding result: binds
B1: 抗人VEGFC单克隆抗体P01-H1L4 (antibody, V domains shown)
VH: EVRLLESGGGLVQPGGSLRLSCAASGFTFRRSTMAWVRQAPGKGLEWVSSISAQGANTYYADNVKGRFTISRDNSKNTLYLQMNSLRAEDTAVYYCARDLPAGGFGPWGRGTMVTVSS
VL: SYELTQPPSSSGTPGQRVTISCRGSSSNIGRYSVSWYQQVPGTAPKLLIYTDNQRPSGVPDRFSASKSGTSASLTITGLQSEDEADYYCAAWDDSQYGPWVFGGGTKLTVL
notes: also called 阳性对照抗体P01-H1L4; 对照抗体P01-H1L4

— patent CN112961250A (CHANGCHUN GENESCIENCE PHARMACEUTICALS CO LTD, dated 2021)
